Results on 28 sequences are retold here after the domain aggregation screens of Martell et al. (2025).
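Further: 20 min heating vs room temperature control held 20 min.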

This series in a line: soluble fraction after stress (log2 fold change); higher = more stays soluble; pooled small domains, quantitative proteomics. Conditions: stress: 75 degC.
For “HMAKITERVMGSAALRDYDPNYLPDEVLKALDGYPPFDGYVYKDGILYARVKIGDTFFIIPPI”, the “soluble fraction (log2)” value is -2.53. “HMAKKDVESTLGGRLRVARVRAGLTQVELARMLGMNSVSLSNVEGGRRGLSMKQLVRVAKILEVPVAYLLG”: the “soluble fraction (log2)” value was -2.36.

As for “HMAKMPSIIIMKDGVIRTSELEQIERDENWLNEEMKKQHIDNPEDVFLAEFWDGKVNFILQDGKIK”, the “soluble fraction (log2)” value was -0.0894. As for “HMAKNDSGLNNHTFNTIRDALQKALTDGPQEAKKLTENLPFPADKIITVIRYLADHDEHFSLEDGIISLT”, the “soluble fraction (log2)” value was 0.609. The value for “HMAKNIEVPNLVGSTISVARNDLKQLGLHVIVRDSVWSEDKKIDTILEQFPEPGKKLKPEGVVQVVVSI” was -0.909; that for “HMAKNSVLTIELWNSTAFKWRKDTEPYSESMSVDFNRSVRLTDGISIMFSKFGFVPGIQYLIPLQT” was -0.534; that for “HMAKQQTTTTAHVVTTGETLYSIAQKNGISVEELKKSNNITSDKLRPGQTLHITKVSKTSSTAK” was 0.87. As for “HMAKRPRFEDVIKEINTEIQKRKGKWNLTILSWMDFDDVAQVIRIHIYRKWHLYDPSKPLGPWLNR”, the “soluble fraction (log2)” value is -0.339. The value for “HMAKSETAKIKATPYGWLRVRDTPSLNGAEIARVNSGDEYKVLEKETGWIKIKVSDTVEGWVSDAYIELS” was -0.21; that for “HMAKSKYETHVLPNLDKIIKWAKAGATAKEIAANLHIAYSTFRKYLDEGQEGDERYAALSAAFAQA” was -0.0762; that for “HMALDLNEDEKLLVELIEKAGGTAGLGELKEASGLSGKKWDKTTKNLSKEGLIKVEKNESGLWVHLT” was 0.0861. In the case of “HMALDLPVKRVKGKEYYYYKVKKGESLYGISKHLGLPLDSIVKSNPSVADGVRKGDMLLFPLEEYT”, the “soluble fraction (log2)” value was -0.702. For the sequence “HMALKQADFDFIRQMIQQRAAIVLDDNKHYFVESRLGPVVEETGSKSLDQLIDQLRSSSNSLLQQKVTEAI”, the “soluble fraction (log2)” value is -0.372. The value for “HMALLSDEERIATVFAARLGGYSHQEIYKLLQDRFGPSLPAAYSEKSVLTDLQTALSQVPSL” was -0.814; that for “HMALPEHIEPFLRGLGQALAEGDSYEDVQERLLRAYPYLDSTEFQTALARVIFISDLWGRLN” was -1.85.

As to “HMALPPPELRGATGEAVTALRPAGIALIQGKRYDVLAEGGEWIAAGAAVRVRDIRNGHLIVSDA”, the “soluble fraction (log2)” value was -0.268. For “HMALRFMAYGRINGTNVHFRTGASASTASLGRYSRGTEFGVYDKIGGWYRVRLLSTGQEGYVYSRYLTLTG”, the “soluble fraction (log2)” value was -2.53. For “HMALSGTVQNFAGGIMILIFRPFKTGDYIEALGYFGKVSEVNIVSTKLRTFDNKTIILPNGALSNGNIQNY”, the “soluble fraction (log2)” value is -0.772. In the case of “HMALSSQQIKDMQSWYGTKADGIWGSKSTTAAGGRDAGAAYSLYSSNKGRYSSYTDYMSYGGG”, the “soluble fraction (log2)” value was determined as 0.341. For “HMALSTRERMSFVLEVLKEKEFIPFVDLFSPEEGRAGVVVTFLALMELMKDSLIEIVQTKNFGEIHVRARL”, the “soluble fraction (log2)” value was -0.316. Consider “HMALTQEQLGQRLQDARKSVALTQQEVAEDLGLSRESLAQIEAGSRSVNSLEIVRLARLYGRSLSSILLE”, for which the “soluble fraction (log2)” value is -0.893. For “HMALYSEQVSEIEKALMSLPPKYQLVMLLLYAEDLKYEQIAEILDEPIGTVKTKIHRARKILKERF”, the “soluble fraction (log2)” value is -0.147. For “HMAMDSGELEAIVDRLISEHPDDWAALTAGDDRERKKKSGFFVGEVMKATRGQADGRAVIELLASRSA”, the “soluble fraction (log2)” value was -0.0771. The value for “HMAMDYTVVHSDRRTIAIQIQRDGRVVVRAPYAATAEDIRRVVDSHRDWVEKTVRRQQEQLAAS” was -0.985; that for “HMAMNITQRHQEILAVIKQEKHITVSEISKLLGVSEVTIRKDFNYLEEKNLIYRHHGGASLNN” was -2.78; that for “HMAMPQPVARALHRLGQDISAARRMRRLSQEDLAQRIGTSLSTVRRMEDGYPGTALHTFLRALHML” was -0.552. The value for “HMAMSDFDALSNRISTLSQGRASAVRMKDGIVSLVLDIGGLSAEERKAMTAAIEGEGRGYPSVTQVRILET” was -0.15; that for “HMANAGKFDSDMGEKINFPGNRVSLTPSELEAARELAAIMGDRFFSQLIPTTSKVTVTEMLQSLK” was 0.745.
